This passage reports amyloid nucleation score results from the supplement of paper PMC12042874.

± gives the uncertainty stated by the source.

A short description of the data set: amyloid nucleation score (Sup35N fusion, yeast selection) (log enrichment); library NNK3; higher = more nucleation; inactive = no reads after selection. An outline of the steps: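 Three technical output replicates were used for random libraries. Psi-negative yeast expressing peptides of 20 random codons fused to Sup35N were induced with 100 μM copper sulfate for 24 hours and grown 7 days at 30°C on medium lacking adenine and uracil, and input and output plasmid inserts were Illumina-sequenced, excluding sequences with under 100 input reads. The nucleation score is the DiMSum log enrichment of output over input reads, centred on the mode score of non-aggregating sequences.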

With DKELKPNFRWGRNFYSFYIC, the amyloid nucleation score result is “inactive”.

In the case of SLYRDLHFYSVLGF, the amyloid nucleation score entry was “inactive”.

For SNSVHISLYIGSPSFA, the amyloid nucleation score was found to be 2.56 ± 0.086. As to RKHAGLYLQYE, the amyloid nucleation score entry was “inactive”. As to RWIFLITILGVLNT, the amyloid nucleation score entry is “inactive”. With YLWARNGDLLLSCCSLNSCM, the amyloid nucleation score worked out at 2.52 ± 0.061. The substance VKIYLSPTWEHIDRVYNCAL came in with an amyloid nucleation score of 1.59 ± 0.059.

Turning to PRIFLSR, the amyloid nucleation score result was “inactive”.

As for RFQYLNYCMFMVRCGHYDTS, the amyloid nucleation score result is “inactive”. With NCDILVLCLSCIADGRQSYE the figure was 2.96 ± 0.078; with IRSVKISSGYLLISYGDNNW, 0.687 ± 0.18. On to NWLDWLGRPPRDIGAWNGSS, for which the amyloid nucleation score entry was “inactive”. As to RSNMHC, the amyloid nucleation score result is “inactive”. Then MLFHDSVSSTWRIFELCSRC, with “inactive”; and KISMSRVVFDNSSTGTIEGQ, with “inactive”; and QGSRLNGIKSPLCIGLKCSR, with “inactive”.

ARQTVPSCTLYYWFLSTVKY: the amyloid nucleation score entry is “inactive”.

In the case of WFYMSRDGYEAVKRLTKLGK, the amyloid nucleation score entry was “inactive”. Then RIKAYVGLFTVSWGSWGRRR, with 1.44 ± 0.14. Then FITFHENDAVELEG, with “inactive”; and TWSGQGHR, with “inactive”; and SSNLNRFSITVFVVERHHQF, with “inactive”. With YCGLVHVSHLGVGREIGRRV the entry was “inactive”; with CFIKSMRVVMVILPFAPCLK, “inactive”.

With YLLCF, the amyloid nucleation score entry was “inactive”. On to QVSLSRRISFYGHLNSDNES, for which the amyloid nucleation score result was “inactive”. Consider DLGYVLLMTHSRIMMCLHHY, for which the amyloid nucleation score entry is “inactive”. Then FAYLF, with “inactive”; and EFLESMNFVVTFLRWIQWTN, with “inactive”; and ASLRCINFMCWLSQTLGVLL, with “inactive”. As to YVNSNWNNISAQASNSFSGR, the amyloid nucleation score result was “inactive”. In the case of RQYRSLRFSVLVYPSHISKG, the amyloid nucleation score amounted to 0.544 ± 0.17. Then NFKAT, with “inactive”; and SVLRYYSNESRLTVHLSVCI, with “inactive”; and GGAVMMALWGGLS, with “inactive”. With VNLYGSRL the entry was “inactive”; with ILVHTHLSTLSIRHTASPMT, “inactive”; with MIYAFVGYGVGTSGGVARES, “inactive”. With ALYERWSTDNVWRRSSQEFL the entry was “inactive”; with NAHPWGYWSIVMRNIKVVVL, “inactive”. On to SFAGYRQIGRQGVWVIQVRH, for which the amyloid nucleation score entry was “inactive”. Regarding CRTSHSWVMYWLRREMCY, the amyloid nucleation score result was “inactive”. With FPDLVVYSS the entry was “inactive”; with SADLFVSEYKGIRMTIGNVF, “inactive”. Then CYQSE, with “inactive”; and LTMALYWTCSLTHILSYGID, with 0.062 ± 0.23; and NVIMVFVLCCFWCEGTQKHV, with 1.83 ± 0.056. Then FLMWVSR, with 1.08 ± 0.12; and FIIDVLTMASTLGCSVQN, with “inactive”. FCIQSVFCCT showed an amyloid nucleation score of 2.88 ± 0.071. Then WQICSGA, with “inactive”; and ASILRTKMLVCKGGKILQLQ, with “inactive”; and ICRLGLLFIMTLRYYNVFVR, with “inactive”. With RSAFGIGFPGGYCVLDHYER the entry was “inactive”; with FLCLMTTKTKCNF, “inactive”; with SNMVPLVNSIPRKGVVKG, “inactive”. Then GISILLSSYPRMCLLRLVGL, with “inactive”; and CRDNTGFCRGSAAVFNRCTG, with “inactive”; and DTLLRKFWVIIVIGTALGSM, with “inactive”.

MPDLITGGKPAIRWYYGSDS: the amyloid nucleation score result was “inactive”. On to GLEVLVISIGAWLSLTLSFQ, for which the amyloid nucleation score entry was “inactive”. With VAKHNAR, the amyloid nucleation score result was “inactive”. Then ASFSMG, with “inactive”; and LRLGIEMNTIGTLNMGPLSL, with “inactive”; and SLLFTGHLCLYHTLVCCVFI, with 1.28 ± 0.11. With CTVNCMTNNATVLVVRGPLR the figure was 2.26 ± 0.067; with NLSLFWMWELGKFYHGDRTA, 2.23 ± 0.066; with VTLSGCIDLVWVCGVT, 2.01 ± 0.099. Substance TWINFFGTYILWPNFNYSTR came in with an amyloid nucleation score of 2.66 ± 0.064.

For YVSKVYLDH, the amyloid nucleation score result was “inactive”. With KQGPWVDTVTVMKTFRMSIN the entry was “inactive”. Substance YIQSNCEFMHPVCIIIFACV registered an amyloid nucleation score of 1.16 ± 0.11.

As for LGNSFLE, the amyloid nucleation score is -0.445 ± 0.84. For the substance SELHK, the amyloid nucleation score result was “inactive”. Then WAIWAYRTLVESMWGTKIGK, with “inactive”. Regarding LSVMDGTSYAGCELKNVEGW, the amyloid nucleation score entry is “inactive”. With GIYFDSGLRGWHSLNHRCRR the figure was 0.132 ± 0.59; with NGELLCKGH, “inactive”; with LRATHVSVKGSGRYSVSTFS, “inactive”. Then EVCNVVTCGNLFKVTIYNSQ, with 2.43 ± 0.068. Then VRARFHDGQF, with -1.05 ± 2.4; and NLRFIRGANSA, with “inactive”. On to NPRNMTPSLVFTDWLS, for which the amyloid nucleation score result is “inactive”.

Consider MFGNIRTFAPTITCMGDFTL, for which the amyloid nucleation score entry was “inactive”.

For the substance HSLTGSHSFVGF, the amyloid nucleation score entry was “inactive”. Regarding SPFCFSCIHACWGNEKIRWV, the amyloid nucleation score result is “inactive”. Take SIPWLIVINTSHLLVIFNAI: the amyloid nucleation score entry was “inactive”. Then FISLPWYCQLVMVRDTSIIK, with “inactive”; and LSTENLLVYMWDRLNSILKG, with “inactive”.

As for FWFLYSSRAQRRRRHWI, the amyloid nucleation score entry was “inactive”.

For MRMFCDIYLIVIDTEFMLHF, the amyloid nucleation score entry is “inactive”. QGWPRKITVILFWILQSGSR: the amyloid nucleation score entry was “inactive”. As to PDHSHHCV, the amyloid nucleation score result was “inactive”. Substance DATSNC had an amyloid nucleation score of -0.232 ± 0.73. As to DFCLCNIRVFPEYRSHYGFG, the amyloid nucleation score result is “inactive”. With CYRSISRRDPS the entry was “inactive”; with SVSGRPGEMFSRYYWIYGMY, “inactive”. As to HCGRTEKDGQLCCENLSGFS, the amyloid nucleation score result is “inactive”. Then TCTEGMGCPMSKAARVLLTR, with “inactive”; and SYVDLYVGWLNSWMYVMRSA, with “inactive”; and FFVYHTILRLPNGAGLRCGP, with “inactive”.

Consider FEQNVGGLYWNKWSWGNLMR, for which the amyloid nucleation score result was “inactive”. With TLGGEMQFVKMFCLLYFNCG the entry was “inactive”.

LIFCNATGFTYRWPLTWVVM: the amyloid nucleation score entry is “inactive”. On to YSVVDEKVALSSSWHSCLPL, for which the amyloid nucleation score result was “inactive”. Then DTWRMFWPLVVLNCADGAPG, with “inactive”; and PRHWFREFMGMVMI, with 0.317 ± 0.51; and TFRYCTVLMFAVSFWQFHRC, with “inactive”. Then LDLLSAVGGVQRLIIHCCWM, with “inactive”. Turning to VRHVITSSG, the amyloid nucleation score entry is “inactive”. Then RITIMFGSLINDLHFCNA, with 2.87 ± 0.052; and HCEFRSQSDTNVVNLCGQGW, with “inactive”; and RMSLSGRYRHFWSGRCVCRE, with “inactive”. On to TESPNYLYRI, for which the amyloid nucleation score result is “inactive”. As to IRQVLCCESLRLGSYMQINT, the amyloid nucleation score entry is “inactive”.

Turning to LCVPTSDRELGYRWFRAEWH, the amyloid nucleation score entry was “inactive”. Then TNTSFTIVSYTSYR, with 0.696 ± 0.27.

Consider VTFKDMDTHGWVHLSIHVAE, for which the amyloid nucleation score result was “inactive”. Regarding NGDHRRCSLIT, the amyloid nucleation score entry is “inactive”.

As to SVKVPWWDCINVRAHMWRMV, the amyloid nucleation score entry is “inactive”.

As for MYLVR, the amyloid nucleation score entry was “inactive”. The substance VCIPYMVVVFISSIP displayed an amyloid nucleation score of 1.72 ± 0.11. For NYVVSFYISSNFWYDVVNCD, the amyloid nucleation score is 0.294 ± 0.22. Take KTYFRHTVRNTSSV: the amyloid nucleation score was 1.52 ± 0.11. In turn, NCVRSLCMLWTTFTCVNDLC had an amyloid nucleation score of 2.1 ± 0.079. For the substance CLVPFAGQWHTVEIMMSSCQ, the amyloid nucleation score result is “inactive”. In the case of FRKTRIALFLPLTLDF, the amyloid nucleation score entry is “inactive”.

In the case of SRCIFIIVIVSGSYGFSVSN, the amyloid nucleation score was 1.14 ± 0.13. With FVFRHYSRPDIFQDGKKSAN the figure was 1.08 ± 0.15; with ITSFFESHTVQVYAFYIRVF, “inactive”. As to SSEVYQALPPMS, the amyloid nucleation score result was “inactive”.
